T1: mouse SIRPα D1-Fc (mouse, UniProt P97797 32-150, limits assumed)
T1 construct: domain: D1
T1 sequence (looked up): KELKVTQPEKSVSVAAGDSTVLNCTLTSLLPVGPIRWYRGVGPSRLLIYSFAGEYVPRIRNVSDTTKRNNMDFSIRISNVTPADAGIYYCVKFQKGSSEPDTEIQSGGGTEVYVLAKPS

T2: mouse SIRPβ1 on CHO cells (mouse)
T2 construct: Whole entry
T2 chain: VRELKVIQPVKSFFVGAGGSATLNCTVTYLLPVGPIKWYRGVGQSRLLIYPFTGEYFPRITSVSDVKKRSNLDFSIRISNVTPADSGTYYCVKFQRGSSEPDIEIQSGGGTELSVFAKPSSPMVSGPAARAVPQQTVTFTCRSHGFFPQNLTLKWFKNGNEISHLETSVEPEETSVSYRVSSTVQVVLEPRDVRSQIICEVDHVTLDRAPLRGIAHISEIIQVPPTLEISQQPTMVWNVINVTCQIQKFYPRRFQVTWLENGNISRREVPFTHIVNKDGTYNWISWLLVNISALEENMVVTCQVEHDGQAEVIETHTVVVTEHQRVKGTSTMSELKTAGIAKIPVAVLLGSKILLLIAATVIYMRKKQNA

T3: mouse SIRPα on cells (mouse, UniProt P97797 32-513)
T3 construct: whole, on cells
T3 sequence (looked up): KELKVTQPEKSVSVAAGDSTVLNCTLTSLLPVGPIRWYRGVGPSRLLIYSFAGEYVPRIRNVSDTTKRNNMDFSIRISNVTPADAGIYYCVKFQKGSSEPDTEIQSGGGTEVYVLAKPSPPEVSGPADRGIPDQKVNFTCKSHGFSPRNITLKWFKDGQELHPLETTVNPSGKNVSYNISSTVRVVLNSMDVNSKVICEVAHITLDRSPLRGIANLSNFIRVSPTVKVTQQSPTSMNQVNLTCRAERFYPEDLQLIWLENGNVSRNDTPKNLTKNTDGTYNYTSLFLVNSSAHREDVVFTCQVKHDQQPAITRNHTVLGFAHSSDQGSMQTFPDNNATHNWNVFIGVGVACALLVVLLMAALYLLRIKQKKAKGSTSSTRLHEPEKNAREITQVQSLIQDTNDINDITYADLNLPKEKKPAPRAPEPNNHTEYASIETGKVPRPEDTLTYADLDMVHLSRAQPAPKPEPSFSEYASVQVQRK


Assays:
[1] = target: T4, human SIRPα domain 1 (D1) Fc fusion (human, UniProt P78324 32-149); assay: Octet
T4 construct: also called human SIRPα D1-Fc; Human SIRPα Fc; not shown: C-terminal human IgG1 Fc

mouse SIRPα D1-Fc = target: T1, mouse SIRPα D1-Fc; assay: Octet
Method: Briefly, Octet affinity measurements were performed by loading IgGs on-line onto AHQ sensors. Sensors were equilibrated off-line in assay buffer for 30 min and then monitored on-line for 60 seconds for baseline establishment. For avid binding measurement, sensors with loaded IgGs were exposed to 100 nM antigen (human SIRPα domain 1 (D1) Fc fusion or SIRPβ1 domain 1 (D1) Fc fusion) for 3 min, and then transferred to assay buffer for 3 min for off-rate measurement. Additional avid binding was determined by loading biotinylated SIRPβ1 monomer on SA sensors and exposing to 100 nM IgG in solution. Monovalent binding measurements were obtained by loading human SIRPα- or SIRPβ1-Fc fusion antigens onto AHQ sensor, followed by exposure to 100 nM anti-SIRPβ1 antibody Fab. Additional monovalent measurements were made by loading biotinylated human SIRPα or SIRPβ1 monomer to SA sensor followed by exposure to 100 nM Fab in solution. Kinetics data were fit using a 1:1 binding model in the data analysis software provided by ForteBio (ForteBio Data Analysis Software 7.0).

human SIRPα on cells [2] = target: T5, human SIRPα on cells (human, UniProt P78324 31-504); assay: flow cytometry;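 as to FOB: antibodies tested at 1 µg/ml for 30 min on ice against receptor-expressing cells, detected with a PE-labelled secondary antibody, read as mean fluorescence intensity relative to background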
T5 construct: Whole entry

[3] = target: T2, mouse SIRPβ1 on CHO cells; assay: flow cytometry;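 as to FOB: antibodies tested at 1 µg/ml for 30 min on ice against receptor-expressing cells, detected with a PE-labelled secondary antibody, read as mean fluorescence intensity relative to background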
mouse SIRPα on cells [4] = target: T3, mouse SIRPα on cells; assay: flow cytometry;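 as to FOB: antibodies tested at 1 µg/ml for 30 min on ice against receptor-expressing cells, detected with a PE-labelled secondary antibody, read as mean fluorescence intensity relative to background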
[5] = target: T6, human SIRPβ1 isoform 1 on cells (human, UniProt O00241 30-398); assay: flow cytometry;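 also: antibodies tested at 1 µg/ml for 30 min on ice against receptor-expressing cells, detected with a PE-labelled secondary antibody, read as mean fluorescence intensity relative to background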
T6 construct: On CHO cells (low level), on BWZ/BW5147.G.1.4 cells (reporter cells co-express human DAP12) or on primary human myeloid cells; also called huSIRPβ1; BWZ-huSIRPβ1
T6 sequence (O00241 30-398): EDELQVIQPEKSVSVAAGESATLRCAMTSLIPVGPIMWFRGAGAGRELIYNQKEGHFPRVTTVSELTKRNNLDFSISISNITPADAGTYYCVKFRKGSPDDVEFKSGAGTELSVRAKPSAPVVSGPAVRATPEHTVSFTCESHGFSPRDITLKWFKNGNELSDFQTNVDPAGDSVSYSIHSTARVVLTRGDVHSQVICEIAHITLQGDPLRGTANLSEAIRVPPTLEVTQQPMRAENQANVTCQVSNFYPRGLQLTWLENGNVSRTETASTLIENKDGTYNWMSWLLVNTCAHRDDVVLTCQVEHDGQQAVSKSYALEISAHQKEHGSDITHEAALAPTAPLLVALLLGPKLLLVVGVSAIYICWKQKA

human SIRPα on cells [6] = target: T5, human SIRPα on cells; assay: flow cytometry; remark: listed apart in the source
[7] = target: T2, mouse SIRPβ1 on CHO cells; assay: flow cytometry
mouse SIRPα on cells [8] = target: T3, mouse SIRPα on cells; assay: flow cytometry; remark: listed apart in the source

binding result [1]	binding result (mouse SIRPα D1-Fc)	binding result (human SIRPα on cells [2])	binding result [3]	binding result (mouse SIRPα on cells [4])	FOB [5] [fold over background]	FOB (human SIRPα on cells [6]) [fold over background]	FOB [7] [fold over background]	FOB (mouse SIRPα on cells [8]) [fold over background]	Binder
no binding (tested: 100 nM)	no binding (tested: 100 nM)	no binding (tested: 1 ug/ml)	no binding (tested: 1 ug/ml)	no binding (tested: 1 ug/ml)	2	2	1.5	1.4	SB-16 (antibody, V domains shown, IgG) VH: QVQLVQSGAEVKKPGSSVKVSCKASGGTFSSYAISWVRQAPGQGLEWMGSIIPIFGTANYAQKFQGRVTITADESTSTAYMELSSLRSEDTAVYYCARANYYDSSGYSGLDLWGRGTLVTVSS VL: not shown
no binding (tested: 100 nM)	no binding (tested: 100 nM)	no binding (tested: 1 ug/ml)	no binding (tested: 1 ug/ml)	no binding (tested: 1 ug/ml)	2.8	2.4	1.2	0.9	SB-18 (antibody, V domains shown, IgG) VH: QVQLVQSGAEVKKPGSSVKVSCKASGGTFSSYAISWVRQAPGQGLEWMGGIIPIFGTANYAQKFQGRVTITADESTSTAYMELSSLRSEDTAVYYCARAKPRGDYGMDVWGQGTTVTVSS VL: not shown
no binding (tested: 100 nM)	no binding (tested: 100 nM)	no binding (tested: 1 ug/ml)	no binding (tested: 1 ug/ml)	no binding (tested: 1 ug/ml)	3.7	2.5	1.3	1.1	SB-24 (antibody, V domains shown, IgG) VH: QVQLQESGPGLVKPSETLSLTCAVSGYSISSGYYWAWIRQPPGKGLEWIGSIYHSGSTYYNPSLKSRVTISVDTSKNQFSLKLSSVTAADTAVYYCARDRSRGYPVYGMDVWGQGTTVTVSS VL: EIVMTQSPATLSVSPGERATLSCRASQSVSSNLAWYQQKPGQAPRLLIYGASTRATGIPARFSGSGSGTEFTLTISSLQSEDFAVYYCQQLNIHPWTFGGGTKVEIK
no binding (tested: 100 nM)	no binding (tested: 100 nM)	no binding (tested: 1 ug/ml)	no binding (tested: 1 ug/ml)	no binding (tested: 1 ug/ml)	1.8	2	1.2	1.3	SB-34 (antibody, V domains shown, IgG) VH: not shown VL: EIVMTQSPATLSVSPGERATLSCRASQSVSSNLAWYQQKPGQAPRLLIYGASTRATGIPARFSGSGSGTEFTLTISSLQSEDFAVYYCQQDNTFPYTFGGGTKVEIK
	no binding (tested: 100 nM)		no binding (tested: 1 ug/ml)	no binding (tested: 1 ug/ml)	1.7	2.1	1.1	1.2	SB-36 (antibody, V domains shown, IgG) VH: QVQLVQSGAEVKKPGASVKVSCKASGYTFTSYYMHWVRQAPGQGLEWMGIINPSGGSTSYAQKFQGRVTMTRDTSTSTVYMELSSLRSEDTAVYYCAREGPEQLWYLDYWGQGTLVTVSS VL: DIQMTQSPSSVSASVGDRVTITCRASQGISSWLAWYQQKPGKAPKLLIYAASSLQSGVPSRFSGSGSGTDFTLTISSLQPEDFATYYCQQAFSHRTFGGGTKVEIK
no binding (tested: 100 nM)	no binding (tested: 100 nM)	no binding (tested: 1 ug/ml)	no binding (tested: 1 ug/ml)	no binding (tested: 1 ug/ml)	3.9	2.4	1.3	1.1	SB-27 (antibody, V domains shown, IgG) VH: QVQLVQSGAEVKKPGSSVKVSCKASGGTFSSYAISWVRQAPGQGLEWMGGIIPIFGTANYAQKFQGRVTITADESTSTAYMELSSLRSEDTAVYYCARQDLGSSHWHFDLWGRGTLVTVSS VL: not shown
no binding (tested: 100 nM)	no binding (tested: 100 nM)	no binding (tested: 1 ug/ml)	no binding (tested: 1 ug/ml)	no binding (tested: 1 ug/ml)	3.7	2	1.5	1	SB-7 (antibody, V domains shown, IgG) VH: QVQLVQSGAEVKKPGSSVKVSCKASGGTFSSYAISWVRQAPGQGLEWMGGIIPIFGTASYAQKFQGRVTITADESTSTAYMELSSLRSEDTAVYYCARETRQDSAHYYGMDVWGQGTTVTVSS VL: not shown
no binding (tested: 100 nM)	no binding (tested: 100 nM)	no binding (tested: 1 ug/ml)	no binding (tested: 1 ug/ml)	no binding (tested: 1 ug/ml)	2.6	2.2	1.3	1.2	SB-20 (antibody, V domains shown, IgG) VH: QVQLVQSGAEVKKPGSSVKVSCKASGGTFSSYAISWVRQAPGQGLEWMGSIIPIFGTANYAQKFQGRVTITADESTSTAYMELSSLRSEDTAVYYCARDGREYGGHYYGMDVWGQGTTVTVSS VL: not shown
no binding (tested: 100 nM)	no binding (tested: 100 nM)	no binding (tested: 1 ug/ml)	no binding (tested: 1 ug/ml)	no binding (tested: 1 ug/ml)	1.4	1.9	1.4	0.9	SB-22 (antibody, V domains shown, IgG) VH: EVQLVESGGGLVQPGGSLRLSCAASGFTVSSNYMSWVRQAPGKGLEWVSVIYSDGSTYYADSVKGRFTISRDNSKNTLYLQMNSLRAEDTAVYYCARPTRYGYDRLGMDVWGQGTTVTVSS VL: DIQMTQSPSSVSASVGDRVTITCRASQGISSWLAWYQQKPGKAPKLLIYAASNLQSGVPSRFSGSGSGTDFTLTISSLQPEDFATYYCQQGNSYPITFGGGTKVEIK
no binding (tested: 100 nM)	no binding (tested: 100 nM)	no binding (tested: 1 ug/ml)	no binding (tested: 1 ug/ml)	no binding (tested: 1 ug/ml)	2.4	1.9	1.5	1.4	SB-23 (antibody, V domains shown, IgG) VH: QVQLVQSGAEVKKPGSSVKVSCKASGGTFSSYAISWVRQAPGQGLEWMGGIAPIFGTANYAQKFQGRVTITADESTSTAYMELSSLRSEDTAVYYCARTTYRDYYMDVWGKGTTVTVSS VL: DIQMTQSPSSLSASVGDRVTITCRASQSISSYLNWYQQKPGKAPKLLIYAASSLQSGVPSRFSGSGSGTDFTLTISSLQPEDFATYYCQQAYPYPLTFGGGTKVEIK
no binding (tested: 100 nM)	no binding (tested: 100 nM)	no binding (tested: 1 ug/ml)	no binding (tested: 1 ug/ml)	no binding (tested: 1 ug/ml)	2.1	2.5	1.2	1.3	SB-25 (antibody, V domains shown, IgG) VH: QVQLVQSGAEVKKPGSSVKVSCKASGGTFSSLAISWVRQAPGQGLEWMGGIIPIFGTANYAQKFQGRVTITADESTSTAYMELSSLRSEDTAVYYCARSGGDYSGYDYASGMDVWGQGTTVTVSS VL: DIQMTQSPSSVSASVGDRVTITCRASQGISSWLAWYQQKPGKAPKLLIYAASSLQSGVPSRFSGSGSGTDFTLTISSLQPEDFATYYCQQVNSFPWTFGGGTKVEIK
